This is an account of results in publication PMC3655159 (Journal of molecular biology, 2013).

This data set concerns the molecule itself. Kind of data set: SDS-PAGE under mildly denaturing conditions.

B1: gB730 L700G/L711G (domain or fragment)
chain: not shown
As to B1, the “stoichiometry N” value came out at 3.
